T1: untagged APOL1-G0, KIK variant, transiently expressed (COS cells) (human, UniProt O14791 29-398)
T1 construct: Origene SC109941 clone with E150K, M228I, R255K
T1 chain: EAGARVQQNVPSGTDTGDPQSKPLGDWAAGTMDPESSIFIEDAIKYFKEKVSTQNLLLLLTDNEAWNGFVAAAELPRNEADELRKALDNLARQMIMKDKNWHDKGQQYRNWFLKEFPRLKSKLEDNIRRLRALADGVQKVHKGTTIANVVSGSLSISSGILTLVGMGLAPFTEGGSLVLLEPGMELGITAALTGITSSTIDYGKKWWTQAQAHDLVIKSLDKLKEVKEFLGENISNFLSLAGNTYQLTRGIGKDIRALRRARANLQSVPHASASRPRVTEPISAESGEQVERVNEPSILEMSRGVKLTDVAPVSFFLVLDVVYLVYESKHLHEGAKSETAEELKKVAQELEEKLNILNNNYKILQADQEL

T2: APOL6-myc-FLAG (human, UniProt Q9BWW8 1-343)
T2 construct: whole, on cells; In fixed, permeabilized transfected COS cells; untagged APOL6 in the western blots; not shown: C-terminal myc-FLAG tag
T2 sequence (looked up): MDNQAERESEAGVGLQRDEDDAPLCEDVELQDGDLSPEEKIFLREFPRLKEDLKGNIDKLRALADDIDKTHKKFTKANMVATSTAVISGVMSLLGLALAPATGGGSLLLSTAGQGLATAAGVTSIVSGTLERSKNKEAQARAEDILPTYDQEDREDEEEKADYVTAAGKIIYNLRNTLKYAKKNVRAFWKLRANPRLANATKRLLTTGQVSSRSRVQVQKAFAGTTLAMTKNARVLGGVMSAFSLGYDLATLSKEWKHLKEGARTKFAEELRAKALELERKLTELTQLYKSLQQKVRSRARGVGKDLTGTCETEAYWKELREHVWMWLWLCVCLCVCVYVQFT

T3: circulating APOL1 in normal human serum (human, UniProt O14791 28-398)
T3 construct: mature; Serum of healthy volunteers; lipoprotein-associated; also called serum APOL1; HDL APOL1
T3 sequence (looked up): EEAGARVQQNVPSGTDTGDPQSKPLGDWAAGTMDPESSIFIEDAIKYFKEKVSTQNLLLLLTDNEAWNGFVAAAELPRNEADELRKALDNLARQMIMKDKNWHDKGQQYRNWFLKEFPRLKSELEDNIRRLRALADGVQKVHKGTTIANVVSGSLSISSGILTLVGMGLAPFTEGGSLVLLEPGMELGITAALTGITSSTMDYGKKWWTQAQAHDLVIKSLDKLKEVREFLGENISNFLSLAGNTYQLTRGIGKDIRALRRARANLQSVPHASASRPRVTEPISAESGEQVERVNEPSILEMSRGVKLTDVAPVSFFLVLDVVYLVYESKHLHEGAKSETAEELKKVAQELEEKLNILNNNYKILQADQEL

T4: endogenous human APOL1 (wild-type immortalized podocytes; also JHH-1 cells, kidney and liver tissue) (human, UniProt O14791 28-398)
T4 construct: whole, on cells; Cell or tissue and permeabilization are told under assay; also called podocyte APOL1; endogenous APOL1
T4 sequence (looked up): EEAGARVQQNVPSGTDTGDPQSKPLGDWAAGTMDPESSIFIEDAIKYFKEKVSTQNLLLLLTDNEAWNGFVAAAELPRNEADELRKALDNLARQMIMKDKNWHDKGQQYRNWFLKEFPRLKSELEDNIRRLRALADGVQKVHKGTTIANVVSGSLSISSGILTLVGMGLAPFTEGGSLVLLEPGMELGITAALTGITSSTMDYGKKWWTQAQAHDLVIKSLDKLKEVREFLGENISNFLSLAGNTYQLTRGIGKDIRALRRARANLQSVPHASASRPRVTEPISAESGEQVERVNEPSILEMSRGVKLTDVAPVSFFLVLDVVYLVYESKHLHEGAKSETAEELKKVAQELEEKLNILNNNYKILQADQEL


Columns and labels:
[1] = molecular target: T1, untagged APOL1-G0, KIK variant, …; assay: immunofluorescence on transfected COS cells, 1 µg/ml; grade
APOL6-myc-FLAG = molecular target: T2, APOL6-myc-FLAG; assay: immunofluorescence on transfected COS cells; grade
From the text: COS cells were transfected as in FIG. 31A except APOL1 and APOL2 were also C-terminally myc-FLAG tagged. Overlays of APOL with epitope tags: either mouse anti-FLAG-M2 or mouse anti-myc 9E10 for anti-APOL1 rabmabs; or rabbit anti-Myc 71D10 in conjunction with mouse anti-APOL1. Signals indicate the two antibodies overlap (i.e. anti-APOL1 cross-reacts with that APOL); signals (epitope tag only) indicate no cross-reactivity. Alexa647 anti-rabbit or mouse were used for the tags to rule out the possibility that any colocalization was a bleed-through artifact. Sparsely transfected areas were imaged to permit evaluation of background staining in adjacent untransfected cells—DAPI nuclear staining identifies both untransfected and transfected cell nuclei. […] Note that none of the antibodies cross-reacted with the more distantly related APOL6. *, APOL2-myc-FLAG is presumably misfolded, since it is not as cross-reactive as untagged APOL2 (compare FIG. 31A) with several antibodies. Commercial antibodies are Sigma HPA018885, Epitomics EPR2907 (2) (Epito) and Proteintech 11486-2-AP (Ptech).
Cells were plated on LabTekII (Nalge Nunc 154534) slides and fixed at 70-100% confluency. For mAb screening, cells were fixed/permeabilized for 5 min in −20° C. methanol (EMD MX0485-6). For all other experiments, cells were fixed in 3% paraformaldehyde in PBS (EMS 15710) for 20 mins at room temperature, quenched with 50 mM NH₄Cl in PBS for 10 mins, then permeabilized with 0.1% TX-100 in PBS for 4 mins or for 1h in saponin buffer [0.4% saponin (Sigma S7900), 1% bovine serum albumin (BSA; Sigma A2153), 2% fetal bovine serum (Seradigm) in PBS]. First antibodies (stored sterile at 4° C.) were applied for 1 h at room temperature, at 1 μg/ml for screening on transfected cells or at subsequently optimized concentrations for detecting endogenous APOL1. After 3×10 min washes in PBS (for Methanol or TX-100 protocols) or saponin buffer (saponin protocol), secondary antibodies were applied at 1.88 μg/ml for 1 h at room temperature, washed 3× and mounted under No. 1.5 coverslips in ProLong Gold with DAPI (4′,6-diamidino-2-phenylindole; Life Technologies P36931).

[2] = molecular target: T3, circulating APOL1 in normal human serum; assay: summary of the Examples: trypanolysis blocking as proxy for serum APOL1
Description: The trypanolysis assay used herein to text specificity of antibodies for serum APOL1 is as follows. Trypanosoma brucei brucei were obtained from ATCC and cultured in HMI-9 media containing IMDM (Genentech), heat-inactivated (56° C. for 30 min) FBS (Seradigm IXL9/06807/GEN), 1% serum plus (Sigma 14008C), HMI-9 (Genentech) and 1% hypoxanthine (Genentech). Trypanosome lysis was performed by treating 1×10⁵ Trypanosomes with serial dilutions of NHS or recombinant APOL1 for 16 h in a total of 100 μl. Live cell read out was done by the Alamar Blue assay as per the manufacturer's protocol, (Thermo Fisher, DAL1100). Briefly 10 μl of Alamar Blue was added to each well, incubated at 37° C. for 4 h. Red fluorescence, indicating live trypanosomes, was measured on a SpectraMax® fluorimeter powered by SoftMAX® PRO with excitation at 530 nm and emission 590 nm. For the antibody blocking assay, 1% normal human serum was preincubated with 1-10 μg/ml of anti-APOL1 antibody or media at room temperature for 20 minutes followed by addition of trypanosomes. After 16 h, the Alamar Blue assay was performed as above and background values for media only were subtracted and % blocking calculated by normalizing to no antibody control.
Trypanosoma brucei brucei were obtained under MTA from ATCC and cultured in HMI-9 media containing IMDM (Genentech), heat-inactivated (56° C. for 30 min) FBS (Seradigm IXL9/06807/GEN), 1% serum plus (Sigma 14008C), HMI-9 (Genentech) and 1% hypoxanthine (Genentech). Trypanosome lysis was performed by treating 1×10⁵ Trypanosomes with serial dilutions of NHS or recombinant APOL1 for 16 h in a total of 100 μl. Live cell read out was done by the Alamar Blue assay as per the manufacturer's protocol (30) (Thermo Fisher, DAL1100). Briefly 10 μl of Alamar Blue was added to each well, incubated at 37° C. for 4 h. Red fluorescence, indicating live trypanosomes, was measured on a SpectraMax fluorimeter powered by SoftMAX PRO with excitation at 530 nm and emission 590 nm. For the antibody blocking assay, 1% normal human serum was preincubated with 1-10 μg/ml of anti-APOL1 antibody or media at room temperature for 20 mins followed by addition of trypanosomes.

[3] = molecular target: T4, endogenous human APOL1 (wild-type …); assay: summary of the Examples: podocyte flow cytometry
Description: Cells were harvested with 5 mM EDTA in PBS, washed once with growth media and twice with PBS. Approximately 0.5×10⁶/m1 of cells resuspended in PBS were incubated with anti-APOL1 antibodies for 1 h on ice. Following two PBS washes, 2 μg/ml of Alexa488 anti-mouse or anti-rabbit (Invitrogen A11029 and A21206, respectively) was used for 1 h on ice for detection. Cells were washed twice in PBS and resuspended in PBS with 1 μg/ml propidium iodide. Signals were read in a FACSCalibur3 (Becton Dickinson), with the exception of FIG. 8A and FIG. 14, which used a FACSCelesta, and data was analyzed using FlowJo v8.4.5. Mean fluorescence intensities were plotted in PRISM v7 after subtraction of secondary antibody alone background. For low pH experiments, cells were incubated with the antibodies in the presence of PBS pH 7.0 or PBS pH 5.5 for an hour on ice and detected with secondary antibodies at neutral pH.

[4] = molecular target: T3, circulating APOL1 in normal human serum; assay: cell-based or functional assay

binding result [1]	binding result (APOL6-myc-FLAG)	binding result [2]	IC50 of blocking of serum APOL1-mediated trypanolysis (Alamar Blue) [4] [nM]	Binder	binding result [3]
		binds		antibody 3.4G10 (antibody, V domains shown, Mouse mAb, cloned as murine IgG2a LALAPG) VH: DVQLQESGPDLVKPSQSLSLTCTVTGYSITSGESWHWIRHFPGNELEWMGFIHYSGSANYNPSLKSRISITRDTSKNQFFLQLLSVTTDDTATYYCARSVYNYDGAWFPYWGQGTLVTVSA VL: QIVLTQSPVIMSASPGERVTLTCSASSSVSSSYLNWYQLKPGSSPKVWIYRTSNLASGVPARFSGSGSGTSYSLTISSMEAEDAASYFCHQWSAYPPTFGGGTKLEIKR	binds
binds	no binding (tested: 1 µg/ml)		1	antibody 3.1C7 (antibody, Mouse mAb, cloned as murine IgG2a LALAPG; also called SRA-ID antibody 3.1C7) heavy: EVQLQQSGTVLSRPGASVKMSCKASGYTMTSYWMHWIKQRPGQGLEWIGAIYPGKSDIKYNQKFKDKAKLTAVTATSTAYMEINSLTNEDSAVYYCTNSIPFVYWGQGTLITVSAASTKGPSVYPLAPVCGDTTGSSVTLGCLVKGYFPEPVTLTWNSGSLSSGVHTFPAVLQSDLYTLSSSVTVTSSTWPSQSITCNVAHPASSTKVDKKIEPRGPTIKPCPPCKCPAPNAAGGPSVFIFPPKIKDVLMISLSPIVTCVVVDVSEDDPDVQISWFVNNVEVHTAQTQTHREDYNSTLRVVSALPIQHQDWMSGKEFKCKVNNKDLGAPIERTISKPKGSVRAPQVYVLPPPEEEMTKKQVTLTCMVTDFMPEDIYVEWTNNGKTELNYKNTEPVLDSDGSYFMYSKLRVEKKNWVERNSYSCSVVHEGLHNHHTTKSFSRTPGK light: DIVMTQSPSSLTVTAGEKVTMSCKSSQSLLNSENQKKYLTWFQQKPGQPPKLLIYWTSTRYSGIPDRFTGSGSGTVFTLTISSVQADDLAVYYCQNDYSYPLTFGGGTKLEIKRADAAPTVSIFPPSSEQLTSGGASVVCFLNNFYPKDINVKWKIDGSERQNGVLNSWTDQDSKDSTYSMSSTLTLTKDEYERHNSYTCEATHKTSTSPIVKSFNRNEC	
	no binding (tested: 1 µg/ml)			rabbit monoclonal antibody 5.17H8 (antibody, V domains shown, Rabbit mAb (Method #5), recombinant; also called rabmab 5.17H8) VH: QSLEESGGRLVTPGTPLTLTCTVSGIDLSSYAMGWVRQAPGKGLEWIGIISSSGSTHYASWAKGRFTISKTSTTVDLKITSPTTEDTATYFCARARAGSTYYTGYYFNLWGQGTLVTVSS VL: AIEMTQTASPVSAAVGGTVTINCQASESIYSNLAWYQQKPGQRPKLLIYGASTLESGVPSRFKGSGSGTEYTLTISDLECDDAATYYCQSGYYGISAINNAFGGGTEVVVKG	

The remaining lines, values behind:

Binder	binding result [1]	binding result (APOL6-myc-FLAG)	binding result [2]	IC50 of blocking of serum APOL1-mediated trypanolysis (Alamar Blue) [4] [nM]	binding result [3]
antibody 4.2C4 (antibody, V domains shown, Mouse mAb, cloned as murine IgG2a LALAPG) VH: QVQLQQSGPELVKPGASVKMSCKASGYTFTDYVISWVKQRTGQGLEWIGEMFPGSGTTYYTEKFRGKATLTADKSSNTAYMQLSSLTSEDSAVYFCARGTTADYWGQGTTLTVSS VL: ENVLTQSPAIMSASLGEKVTMSCRASSSVNYMYWYQQKSDASPKLWIYYTSNLAPGVPARFSGSGSGNSYSLTISSMEGEDAATYYCQQFTSSPYTFGGGTKLEIKR	binds	no binding (tested: 1 µg/ml)			
antibody 3.2C11 (antibody, V domains shown, Mouse mAb, cloned as murine IgG2a LALAPG) VH: QVQLQQSGAELVRPGASVKLSCKALGYTFTDYEIHWVKQTPVHGLEWIGGIHPGNGGTAYNPKFKGKATLTADTSSSTASMELSSLTSEDSAVYYCTDWVDYWGQGTTLTVSS VL: DVVVTQTPLSLPVNFGDQVSISCRSSQSLVNRHGITYLSWYLHKPGQSPQLLIYEISNRFSGVPDRFSGSGSGTDFTLKISTIKPEDLGMYYCFQGTHQPFTFGGGTKLEIKR			binds		

— patent US20230071609A1 (Genentech, published 2023)
